Measurements from the Human Domainome abundance scans (Beltran et al. 2025).
± gives the uncertainty stated by the source.

B1: V(D)J recombination-activating protein 2, residues 415 to 491; numbered along this chain, P55895 (parent)
chain: YWITCCPTCDVDINTWVPFYSTELNKPAMIYCSHGDGHWVHAQCMDLAERTLIHLSAGSNKYYCNEHVEIARALHTP

Variants of: B1
Assay: abundance fitness (aPCA) (normalised: wild type 0, dead -1); higher = more abundant; growth selection in yeast, the domain comes from the species named
Settings: Homo sapiens

Going from T76A to T76W, the abundance fitness falls from 0.005 ± 0.076 to -0.321 ± 0.11.

T76L and T4A are within error of each other in abundance fitness: -0.029 ± 0.078 for the first, -0.122 ± 0.046 for the second.

T4I and T4L are within error of each other in abundance fitness: -0.016 ± 0.1 for the first, -0.049 ± 0.053 for the second.

T4D and T4V are within error of each other in abundance fitness: -0.022 ± 0.12 for the first, -0.128 ± 0.045 for the second.

First: T4W
Second: L55K
The abundance fitness of the first is lower: -0.297 ± 0.07 for the first, -0.019 ± 0.087 for the second.

L55G and L55T are within error of each other in abundance fitness: -0.18 ± 0.047 for the first, -0.174 ± 0.069 for the second.

L55H and L55Y are within error of each other in abundance fitness: 0.085 ± 0.18 for the first, -0.027 ± 0.083 for the second.

L55M and L55S are within error of each other in abundance fitness: -0.026 ± 0.066 for the first, -0.011 ± 0.049 for the second.

First: M45Q
Second: M45K
The abundance fitness of the first is higher: 0.032 ± 0.057 for the first, -0.202 ± 0.1 for the second.

L24C and L24F are within error of each other in abundance fitness: 0.027 ± 0.096 for the first, -0.362 ± 0.3 for the second.

L24V and L24Q are within error of each other in abundance fitness: -0.083 ± 0.12 for the first, -0.1 ± 0.18 for the second.

L24A and I70P are within error of each other in abundance fitness: -0.164 ± 0.15 for the first, -0.216 ± 0.22 for the second.

I70E and I70Y are within error of each other in abundance fitness: -0.093 ± 0.097 for the first, 0.064 ± 0.14 for the second.

F19Y and F19D are within error of each other in abundance fitness: 0.08 ± 0.42 for the first, 0.099 ± 0.32 for the second.

F19C and F19N are within error of each other in abundance fitness: -0.186 ± 0.2 for the first, 0.191 ± 0.46 for the second.

F19G and H34L are within error of each other in abundance fitness: -0.142 ± 0.19 for the first, -0.073 ± 0.059 for the second.

H34D and H34V are within error of each other in abundance fitness: -0.095 ± 0.13 for the first, -0.132 ± 0.05 for the second.

H34E and D12R are within error of each other in abundance fitness: -0.085 ± 0.082 for the first, 0.107 ± 0.12 for the second.

D12W and D12L are within error of each other in abundance fitness: -0.317 ± 0.28 for the first, -0.332 ± 0.11 for the second.

First: D12G
Second: D12P
The abundance fitness of the first is higher: -0.04 ± 0.14 for the first, -0.392 ± 0.21 for the second.

D12N and D12S are within error of each other in abundance fitness: -0.01 ± 0.37 for the first, -0.229 ± 0.22 for the second.

Going from Y31W to Y31G, the abundance fitness falls from -0.193 ± 0.062 to -0.337 ± 0.069.

Going from Y31M to Y31D, the abundance fitness falls from 0.004 ± 0.072 to -0.28 ± 0.15.

Y31P and Y31S are within error of each other in abundance fitness: -0.245 ± 0.093 for the first, -0.188 ± 0.063 for the second.

Y62C and Y62N are within error of each other in abundance fitness: -0.442 ± 0.2 for the first, -0.469 ± 0.17 for the second.

First: L47C
Second: L47S
The abundance fitness of the first is higher: -0.081 ± 0.08 for the first, -0.277 ± 0.047 for the second.

Compared with L47M, L47F is lower in abundance fitness: 0.05 ± 0.057 for the first, -0.133 ± 0.1 for the second.

S56K and S56Q are within error of each other in abundance fitness: 0.029 ± 0.1 for the first, -0.031 ± 0.13 for the second.

S56P and S56E are within error of each other in abundance fitness: -0.074 ± 0.095 for the first, 0.058 ± 0.065 for the second.

P77Q and P77N are within error of each other in abundance fitness: -0.011 ± 0.26 for the first, -0.325 ± 0.35 for the second.

P77C and R72V are within error of each other in abundance fitness: -0.243 ± 0.34 for the first, -0.016 ± 0.12 for the second.

R72W and R72I are within error of each other in abundance fitness: -0.168 ± 0.075 for the first, -0.121 ± 0.19 for the second.

R72K and R72T are within error of each other in abundance fitness: 0.022 ± 0.18 for the first, 0.056 ± 0.08 for the second.

R72D and R72N are within error of each other in abundance fitness: 0.032 ± 0.21 for the first, 0.059 ± 0.21 for the second.

First: G58N
Second: G58K
The abundance fitness of the first is lower: -0.426 ± 0.19 for the first, -0.063 ± 0.13 for the second.

G58F and G58S are within error of each other in abundance fitness: -0.221 ± 0.14 for the first, -0.038 ± 0.071 for the second.

Going from G58V to H38V, the abundance fitness falls from -0.161 ± 0.084 to -0.776 ± 0.31.

S59L and S59Q are within error of each other in abundance fitness: -0.087 ± 0.085 for the first, -0.224 ± 0.077 for the second.

S59Y and S59C are within error of each other in abundance fitness: -0.031 ± 0.12 for the first, -0.005 ± 0.1 for the second.

First: S59T
Second: V11T
The abundance fitness of the first is higher: 0.02 ± 0.093 for the first, -0.336 ± 0.13 for the second.

V11M and V11F are within error of each other in abundance fitness: -0.264 ± 0.19 for the first, -0.386 ± 0.22 for the second.

V11W and V11C are within error of each other in abundance fitness: -0.178 ± 0.29 for the first, 0.012 ± 0.38 for the second.

D36S and A42C are within error of each other in abundance fitness: -0.149 ± 0.14 for the first, -0.118 ± 0.077 for the second.

Going from A42G to A42K, the abundance fitness falls from -0.115 ± 0.05 to -0.411 ± 0.11.

I53H and I53L are within error of each other in abundance fitness: -0.069 ± 0.18 for the first, -0.02 ± 0.076 for the second.

I53W and I53F are within error of each other in abundance fitness: -0.124 ± 0.12 for the first, -0.013 ± 0.19 for the second.

Compared with I53A, H41Y is lower in abundance fitness: 0.154 ± 0.11 for the first, -0.771 ± 0.34 for the second.

S33G and S33P are within error of each other in abundance fitness: -0.065 ± 0.046 for the first, -0.126 ± 0.062 for the second.

S33L and S33N are within error of each other in abundance fitness: -0.095 ± 0.039 for the first, -0.06 ± 0.094 for the second.

Going from S33I to S33R, the abundance fitness falls from -0.031 ± 0.052 to -0.147 ± 0.04.

Going from R50P to R50W, the abundance fitness falls from 0.1 ± 0.068 to -0.195 ± 0.066.

R50V and R50S are within error of each other in abundance fitness: 0.069 ± 0.051 for the first, 0.092 ± 0.06 for the second.

C64H and C64M are within error of each other in abundance fitness: -0.962 ± 0.41 for the first, -1.06 ± 0.46 for the second.

C64G and C64W are within error of each other in abundance fitness: -0.935 ± 0.1 for the first, -0.901 ± 0.11 for the second.

C64F and C64Y are within error of each other in abundance fitness: -0.851 ± 0.37 for the first, -0.712 ± 0.28 for the second.

C64E and E23K are within error of each other in abundance fitness: -1.05 ± 0.25 for the first, -0.54 ± 0.28 for the second.

Compared with A71Q, A71K is lower in abundance fitness: 0.044 ± 0.069 for the first, -0.225 ± 0.1 for the second.

A71Y and A71M are within error of each other in abundance fitness: 0.124 ± 0.15 for the first, -0.12 ± 0.1 for the second.

V17I and H54W are within error of each other in abundance fitness: -0.153 ± 0.2 for the first, -0.064 ± 0.087 for the second.

H54C and H54S are within error of each other in abundance fitness: 0.001 ± 0.15 for the first, -0.002 ± 0.091 for the second.

H54L and H54A are within error of each other in abundance fitness: 0.016 ± 0.06 for the first, 0.004 ± 0.066 for the second.

D10L and D10R are within error of each other in abundance fitness: 0.102 ± 0.2 for the first, 0.195 ± 0.17 for the second.

D10V and D10W are within error of each other in abundance fitness: 0.145 ± 0.19 for the first, 0.045 ± 0.12 for the second.

Compared with P18M, P18L is higher in abundance fitness: -0.579 ± 0.24 for the first, -0.038 ± 0.25 for the second.

P18R and Y63D are within error of each other in abundance fitness: -0.381 ± 0.081 for the first, -0.207 ± 0.096 for the second.

Going from Y63R to Y63C, the abundance fitness rises from -0.049 ± 0.067 to 0.188 ± 0.11.

Going from Y63F to Y63G, the abundance fitness falls from -0.002 ± 0.13 to -0.377 ± 0.081.

T15V and T15M are within error of each other in abundance fitness: 0.015 ± 0.34 for the first, -0.011 ± 0.3 for the second.

T15F and T15G are within error of each other in abundance fitness: 0.052 ± 0.36 for the first, 0.055 ± 0.25 for the second.

N65T and N65E are within error of each other in abundance fitness: -0.005 ± 0.074 for the first, 0.058 ± 0.082 for the second.

N65Q and N65H are within error of each other in abundance fitness: -0.181 ± 0.14 for the first, 0.003 ± 0.16 for the second.

T8N and T8D are within error of each other in abundance fitness: 0.091 ± 0.18 for the first, -0.279 ± 0.35 for the second.

T8P and T8Q are within error of each other in abundance fitness: -0.159 ± 0.3 for the first, -0.258 ± 0.2 for the second.

T8R and A73T are within error of each other in abundance fitness: -0.204 ± 0.2 for the first, 0.033 ± 0.088 for the second.

A73W and A73E are within error of each other in abundance fitness: -0.104 ± 0.086 for the first, -0.009 ± 0.1 for the second.

First: A73P
Second: Y20G
The abundance fitness of the first is higher: 0.027 ± 0.13 for the first, -0.28 ± 0.15 for the second.

S21F and S21D are within error of each other in abundance fitness: -0.154 ± 0.14 for the first, -0.17 ± 0.26 for the second.

S21T and S21R are within error of each other in abundance fitness: -0.321 ± 0.12 for the first, -0.111 ± 0.12 for the second.

S21H and S21W are within error of each other in abundance fitness: 0.086 ± 0.35 for the first, -0.443 ± 0.19 for the second.

First: D46W
Second: D46G
The abundance fitness of the first is lower: -0.193 ± 0.07 for the first, -0.03 ± 0.055 for the second.

First: D46N
Second: E49G
The abundance fitness of the first is higher: 0.029 ± 0.11 for the first, -0.295 ± 0.044 for the second.

E49C and E49M are within error of each other in abundance fitness: -0.201 ± 0.067 for the first, -0.168 ± 0.067 for the second.

First: E49R
Second: E49A
The abundance fitness of the first is lower: -0.368 ± 0.055 for the first, -0.056 ± 0.046 for the second.

A57K showed an abundance fitness of -0.111 ± 0.12.
